According to patent US7238786B2, “Monoclonal antibody cPAM4” (Immunomedics, Inc., priority 2002, dated 2007):
Residue numbers refer to the chain shown, from its start.

Assays:
Normal Adult Tissues = assay: Immunoperoxidase staining of normal adult tissues with MAb PAM4; assay type: binding, human
Description: (§1) Normal pancreatic tissue, including ducts, ductules, acini, and islet cells, were negative for staining. A PAM4 based enzyme immunoassay with tissue homogenates as antigens generally supported the immunohistology data (Table 2). The PAM4 epitope was absent from normal pancreas and other nongastrointestinal tissues. In neoplastic tissues, PAM4 was reactive with twenty one out of twenty five ([…]) pancreatic cancers (Table 3). PAM4 reactivity appeared to correlate with the stage of tumor differentiation. […] Generally, poorly differentiated tumors represent less than 10% of all pancreatic cancers.

[1] = test system: Normal Adult Tissue Homogenates; assay: PAM4 based enzyme immunoassay with tissue homogenates as antigens; assay type: binding, human
Description: as §1

Pancreatic Tumors = assay: Immunohistochemical reactivity of monoclonal antibodies with pancreatic tumors; assay type: binding, human; design: key to Immunohistochemical reactivity: −: Negative; +: 5–20% of tissue is stained; ++: 21–50% of tissue is stained; +++: >50% of tissue is stained
Description: as §1
(§2) These studies have shown the PAM4 reactivity and tissue distribution (both normal and cancer) to be unlike that reported for CA19.9, DUPAN2, SPAN1, Nd2, B72.3, and the Lewis antigens. […] When compared to CA19.9, DUPAN2, and aLe^a, PAM4 appears to be more restricted in its tissue distribution and it is reactive with a higher percentage of pancreatic tumors. Moreover, it gives a greater overall intensity of reaction at equivalent concentrations and is reactive with a higher percentage of cells within the tumors. […] Although it is recognized that specificity is dependent upon the type of assay employed and the range and number of tissues examined, the ability of PAM4 to discriminate between normal and neoplastic pancreatic tissue, its ability to react with a large percentage of the cancer specimens, as well as the high intensity of the reactions, were important rationales for pursuing developmental studies of clinical application.

Neoplastic Tissues = assay: Immunoperoxidase staining of neoplastic tissues with MAb PAM4; assay type: binding, human
Description: as §1

[2] = test system: chronic pancreatitis specimens; assay: Immunohistochemistry of chronic pancreatitis specimens; assay type: binding, human; settings: twelve specimens
Description: as §2

tumors = assay: Clinical studies with PAM4 MAb: targeting and dosimetry; assay type: in vivo, human; settings: patients
CaPan1 = assay: Biodistribution and dosimetry of radiolabeled PAM4, CaPan1 xenograft; settings: in vivo
Method: Initial biodistribution studies of PAM4 were carried out in a series of four different xenografted human pancreatic tumors covering the range of expected differentiation. […] The biodistribution data were used to estimate potential radiation doses to the tumor of 12,230; 10,684; 6,835; and 15,843 cGy/mCi of injected dose to AsPc1, BxPc3, Hs766T and CaPan1, respectively. With an actual maximum tolerated dose (MTD) of 0.7 mCi, PAM4 could provide substantial rad dose to each of the xenografted tumor models. […] Potential radiation doses to the blood from PAM4 were 1.4-4.4 fold lower than from Ag8. […] Importantly, potential radiation doses to non-tumor tissues were minimal.
The biodistribution of PAM4 was compared with an anti-CEA antibody, MN14, using the CaPan1 tumor model. The concentration of PAM4 within the tumor was much greater than the MN14 at early timepoints, yielding tumor:blood ratios at day three of 12.7±2.3 for PAM4 compared to 2.7±1.9 for MN14. […] This was due to a rapid clearance of PAM4 from the tumor, such that at later timepoints similar concentrations of the two antibodies were present within the tumors. A rapid clearance of PAM4 from the tumor was also noted in the BxPc3 and Hs766T but not AsPc1 tumor models. […] Results from studies on the metabolism of PAM4, indicate that after initial binding to the tumor cell, antibody is rapidly released, possibly being catabolized or being shed as an antigen:antibody complex. This might have had unfavorable implications for the use of the antibody in patients except that the blood clearance is also very rapid.
This type of splenic targeting has been observed in the clinical application of the anti-mucin antibodies B72.3 and CC49. […] The latter would require the presence of immune complexes in the blood; however, these were not observed when specimens as early as five minutes and as late as seven days were examined by gel filtration (HPLC, GF-250 column); radiolabeled antibody eluted as native material. The former explanation seems more likely in view of the fact that the CaPan1 tumor produced large quantities of PAM4-reactive antigen, 100 to 1000-fold higher than for the other tumor cell lines examined. […] In any event, splenic targeting can be overcome by increasing the protein dose to 10 ug from the original 2 ug dose. A greater amount of the splenic entrapped antigen presumably was complexed with unlabeled PAM4 rather than radiolabeled antibody. Increasing the protein dose had no adverse effect upon targeting of PAM4 to the tumor or nontumor tissues.

PAM4 antigen = assay: Competition with ^131I-mPAM4 binding to the antigen (FIG. 3); settings: competing with ^131I-mPAM4 binding to the antigen
Description: A chimeric antibody is a recombinant protein that contains the variable domains including the complementarity determining regions (CDRs) of an antibody derived from one species while the constant domains of the antibody molecule is derived from those of a human antibody.

B1: PAM4: murine MUC1 monoclonal antibody developed with pancreatic cancer mucin from the xenografted RIP-1 human pancreatic carcinoma as immunogen (antibody, V domains shown)
VL: DIVMTQSPAIMSASPGEKVTMTCSASSSVSSSYLYWYQQKPGSSPKLWIYSTSNLASGVPARFSGSGSGTSYSLTISSMEAEDAASYFCHQWNRYPYTFGGGTKLEIK
VH: EVQLQESGPELVKPGASVKMSCKASGYTFPSYVLHWVKQKPGQGLEWIGYINPYNDGTQYNEKFKGKATLTSDKSSSTAYMELSRLTSEDSAVYYCARGFGGSYGFAYWGQGTLITVSA
Normal Adult Tissues; Colon
  Staining Reaction: + goblet cells
Normal Adult Tissues; Duodenum
  Staining Reaction: + goblet cells
Normal Adult Tissues; Ileum
  Staining Reaction: + goblet cells
Normal Adult Tissues; Jejunum
  Staining Reaction: + goblet cells
Normal Adult Tissues; Stomach
  Staining Reaction: + mucus secreting cells
[1]; Adrenal, mean from two autopsy specimens
  PAM4 reactivity by EIA: 1.3 ug/g tissues
[1]; Bladder, mean from two autopsy specimens
  PAM4 reactivity by EIA: 4.9 ug/g tissues
[1]; CaPan1 Pancreatic Tumor
  PAM4 reactivity by EIA: 569 ug/g tissues
[1]; Colon, mean from two autopsy specimens
  PAM4 reactivity by EIA: 74.5 ug/g tissues
[1]; Duodenum, mean from two autopsy specimens
  PAM4 reactivity by EIA: 44.7 ug/g tissues
[1]; Esophagus, mean from two autopsy specimens
  PAM4 reactivity by EIA: 8.1 ug/g tissues
[1]; Gallbladder, mean from two autopsy specimens
  PAM4 reactivity by EIA: 5.6 ug/g tissues
[1]; Heart, mean from two autopsy specimens
  PAM4 reactivity by EIA: 3.7 ug/g tissues
[1]; Jejunum, mean from two autopsy specimens
  PAM4 reactivity by EIA: 60.6 ug/g tissues
[1]; Kidney, mean from two autopsy specimens
  PAM4 reactivity by EIA: 6.6 ug/g tissues
[1]; Liver, mean from two autopsy specimens
  PAM4 reactivity by EIA: 0.0 ug/g tissues
[1]; Pancreas, mean from two autopsy specimens
  PAM4 reactivity by EIA: 6.4 ug/g tissues
[1]; Spleen, mean from two autopsy specimens
  PAM4 reactivity by EIA: 3.4 ug/g tissues
[1]; Stomach, mean from two autopsy specimens
  PAM4 reactivity by EIA: 61.3 ug/g tissues
[1]; Testes, mean from two autopsy specimens
  PAM4 reactivity by EIA: 3.9 ug/g tissues
[1]; Thyroid, mean from two autopsy specimens
  PAM4 reactivity by EIA: 3.5 ug/g tissues
[1]; Ureter, mean from two autopsy specimens
  PAM4 reactivity by EIA: 2.6 ug/g tissues
Pancreatic Tumors; all pancreatic tumors
  Immunohistochemical reactivity, TOTAL (positive/examined): 21/25
Pancreatic Tumors; pancreatic tumor 1, differentiation W
  Immunohistochemical reactivity: +++ (+++: >50% of tissue is stained)
Pancreatic Tumors; pancreatic tumor 2, differentiation M
  Immunohistochemical reactivity: ++ (++: 21–50% of tissue is stained)
Pancreatic Tumors; pancreatic tumor 3, differentiation M
  Immunohistochemical reactivity: + (+: 5–20% of tissue is stained)
Pancreatic Tumors; pancreatic tumor 4, differentiation M
  Immunohistochemical reactivity: +++ (+++: >50% of tissue is stained)
Pancreatic Tumors; pancreatic tumor 5, differentiation M
  Immunohistochemical reactivity: ++ (++: 21–50% of tissue is stained)
Pancreatic Tumors; pancreatic tumor 6, differentiation M
  Immunohistochemical reactivity: + (+: 5–20% of tissue is stained)
Pancreatic Tumors; pancreatic tumor 7, differentiation M, metastatic tissue
  Immunohistochemical reactivity: +++ (+++: >50% of tissue is stained)
Pancreatic Tumors; pancreatic tumor 8, differentiation M
  Immunohistochemical reactivity: + (+: 5–20% of tissue is stained)
Pancreatic Tumors; pancreatic tumor 9, differentiation M
  Immunohistochemical reactivity: ++ (++: 21–50% of tissue is stained)
Pancreatic Tumors; pancreatic tumor 10, differentiation M, metastatic tissue
  Immunohistochemical reactivity: ++ (++: 21–50% of tissue is stained)
Pancreatic Tumors; pancreatic tumor 11, differentiation M
  Immunohistochemical reactivity: ++ (++: 21–50% of tissue is stained)
Pancreatic Tumors; pancreatic tumor 12, differentiation M
  Immunohistochemical reactivity: ++ (++: 21–50% of tissue is stained)
Pancreatic Tumors; pancreatic tumor 13, differentiation M
  Immunohistochemical reactivity: + (+: 5–20% of tissue is stained)
Pancreatic Tumors; pancreatic tumor 14, differentiation M
  Immunohistochemical reactivity: ++ (++: 21–50% of tissue is stained)
Pancreatic Tumors; pancreatic tumor 15, differentiation M
  Immunohistochemical reactivity: +++ (+++: >50% of tissue is stained)
Pancreatic Tumors; pancreatic tumor 16, differentiation M
  Immunohistochemical reactivity: + (+: 5–20% of tissue is stained)
Pancreatic Tumors; pancreatic tumor 17, differentiation M
  Immunohistochemical reactivity: −
Pancreatic Tumors; pancreatic tumor 18, differentiation M
  Immunohistochemical reactivity: ++ (++: 21–50% of tissue is stained)
Pancreatic Tumors; pancreatic tumor 19, differentiation M
  Immunohistochemical reactivity: +++ (+++: >50% of tissue is stained)
Pancreatic Tumors; pancreatic tumor 20, differentiation M
  Immunohistochemical reactivity: + (+: 5–20% of tissue is stained)
Pancreatic Tumors; pancreatic tumor 21, differentiation M
  Immunohistochemical reactivity: +++ (+++: >50% of tissue is stained)
Pancreatic Tumors; pancreatic tumor 22, differentiation P
  Immunohistochemical reactivity: + (+: 5–20% of tissue is stained)
Pancreatic Tumors; pancreatic tumor 23, differentiation P
  Immunohistochemical reactivity: −
Pancreatic Tumors; pancreatic tumor 24, differentiation P
  Immunohistochemical reactivity: −
Pancreatic Tumors; pancreatic tumor 25, differentiation P
  Immunohistochemical reactivity: −
Pancreatic Tumors; poorly differentiated pancreatic tumors
  tumors positive: one out of four
Pancreatic Tumors; twenty one out of twenty five pancreatic cancers
  pancreatic cancers reactive: 85%
Pancreatic Tumors; well and moderately differentiated pancreatic tumors
  tumors positive: twenty out of twenty one
Neoplastic Tissues; Breast neoplastic tissue
  Positive/Total: 0/30
Neoplastic Tissues; Colon neoplastic tissue
  Positive/Total: 10/26
Neoplastic Tissues; Kidney neoplastic tissue
  Positive/Total: 0/4
Neoplastic Tissues; Liver neoplastic tissue
  Positive/Total: 0/10
Neoplastic Tissues; Lung neoplastic tissue
  Positive/Total: 1/15
Neoplastic Tissues; Ovarian neoplastic tissue
  Positive/Total: 0/10
Neoplastic Tissues; Pancreas neoplastic tissue
  Positive/Total: 21/25
Neoplastic Tissues; Prostate neoplastic tissue
  Positive/Total: 0/4
Neoplastic Tissues; Stomach neoplastic tissue
  Positive/Total: 1/5
Neoplastic Tissues; colorectal cancer specimens
  specimens reactive with PAM4 by immunohistochemistry: 40%
[2]
  reactivity with chronic pancreatitis specimens: only weakly reactive with three out of twelve
tumors
  targeting of lesions: a majority of the lesions were targeted
  uptake in normal tissues: no indication of uptake in normal tissues
CaPan1
  concentration of radiolabeled PAM4 within the CaPan1 tumor on increasing protein dose: more than doubled
  dose to the tumor, fold higher than MN14: 3.2 fold
  splenic uptake: 3.1-7.5 % ID/g
  tumor:blood ratio: 12.7±2.3

B2: cPAM4: chimeric PAM4: murine PAM4 variable domains with human light and heavy chain constant regions (antibody, V domains shown)
VL: DIQLTQSPAIMSASPGEKVTMTCSASSSVSSSYLYWYQQKPGSSPKLWIYSTSNLASGVPARFSGSGSGTSYSLTISSMEAEDAASYFCHQWNRYPYTFGGGTKLEIKR
VH: B1 VH with E1Q
PAM4 antigen
  binding activity compared to murine PAM4: comparable binding activity
